Measured values: the supplement of paper PMC10065799, “High-throughput profiling of sequence recognition by tyrosine kinases and SH2 domains using bacterial peptide display” (eLife, 2023)

Columns and labels:
[1] = test system: AncSZ; assay: phosphorylation enrichment, bacterial display (enrichment ratio); higher = better substrate or ligand; peptides without Tyr show the background
[2] = target: EPHB1 (UniProt P54762); assay: as above
[3] = target: EPHB2 (UniProt P29323); assay: as above
[4] = target: FGFR1 (UniProt P11362); assay: as above
[5] = target: FGFR3 (UniProt P22607); assay: as above
[6] = test system: Fer (mouse); assay: as above
[7] = target: Fes (UniProt P07332); assay: as above
[8] = target: Fyn (UniProt P06241); assay: as above
[9] = target: Hck (UniProt P08631); assay: as above
[10] = target: Jak2 (UniProt O60674); assay: as above
[11] = target: MERTK (UniProt Q12866); assay: as above
[12] = test system: c-Abl (mouse); assay: as above
[13] = test system: c-Src; assay: as above
[14] = target: Grb2 SH2 (UniProt P62993); assay: SH2 binding enrichment of the phosphorylated peptide, bacterial display (enrichment ratio); higher = better substrate or ligand; peptides without Tyr show the background
[15] = target: SHP2-C SH2; assay: as above
[16] = target: c-Src SH2; assay: as above
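For SH2 binding enrichment of the phosphorylated peptide, bacterial display in this document: peptide library displayed on the E. coli surface as eCPX fusions, selected cells deep-sequenced, score is each peptide's frequency after selection divided by its frequency in the input.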
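For phosphorylation enrichment, bacterial display in this document: 11-residue human phosphosite peptides and single-mutation variants displayed on the E. coli surface, counted by deep sequencing, each peptide's frequency after selection divided by its frequency in the unselected input library; frequency after pTyr selection over input frequency; kinase dosed for 20-30% of maximal phosphorylation in three min.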

Fes, sequence (P07332 whole entry, looked up): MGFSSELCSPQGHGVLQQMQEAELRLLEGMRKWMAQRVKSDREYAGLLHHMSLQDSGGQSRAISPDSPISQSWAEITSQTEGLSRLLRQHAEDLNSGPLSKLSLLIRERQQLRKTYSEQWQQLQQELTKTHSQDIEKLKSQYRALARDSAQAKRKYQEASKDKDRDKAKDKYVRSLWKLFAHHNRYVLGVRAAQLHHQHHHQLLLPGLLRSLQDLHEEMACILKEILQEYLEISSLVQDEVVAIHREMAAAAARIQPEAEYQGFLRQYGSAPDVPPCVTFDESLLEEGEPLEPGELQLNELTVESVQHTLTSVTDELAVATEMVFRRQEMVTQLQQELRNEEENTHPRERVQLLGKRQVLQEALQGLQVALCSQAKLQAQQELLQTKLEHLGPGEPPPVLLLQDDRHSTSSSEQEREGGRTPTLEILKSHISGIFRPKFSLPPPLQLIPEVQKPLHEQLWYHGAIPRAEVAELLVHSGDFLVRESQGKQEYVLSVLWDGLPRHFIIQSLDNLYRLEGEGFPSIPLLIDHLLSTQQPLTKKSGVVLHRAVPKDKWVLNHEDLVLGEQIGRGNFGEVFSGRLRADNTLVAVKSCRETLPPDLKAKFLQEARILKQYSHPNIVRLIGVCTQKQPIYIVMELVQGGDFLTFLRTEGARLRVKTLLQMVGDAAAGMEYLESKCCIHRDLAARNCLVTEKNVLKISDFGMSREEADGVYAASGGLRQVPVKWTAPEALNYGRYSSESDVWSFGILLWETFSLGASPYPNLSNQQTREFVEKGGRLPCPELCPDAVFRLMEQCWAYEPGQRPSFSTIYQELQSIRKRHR
MERTK, sequence (Q12866 whole entry, looked up): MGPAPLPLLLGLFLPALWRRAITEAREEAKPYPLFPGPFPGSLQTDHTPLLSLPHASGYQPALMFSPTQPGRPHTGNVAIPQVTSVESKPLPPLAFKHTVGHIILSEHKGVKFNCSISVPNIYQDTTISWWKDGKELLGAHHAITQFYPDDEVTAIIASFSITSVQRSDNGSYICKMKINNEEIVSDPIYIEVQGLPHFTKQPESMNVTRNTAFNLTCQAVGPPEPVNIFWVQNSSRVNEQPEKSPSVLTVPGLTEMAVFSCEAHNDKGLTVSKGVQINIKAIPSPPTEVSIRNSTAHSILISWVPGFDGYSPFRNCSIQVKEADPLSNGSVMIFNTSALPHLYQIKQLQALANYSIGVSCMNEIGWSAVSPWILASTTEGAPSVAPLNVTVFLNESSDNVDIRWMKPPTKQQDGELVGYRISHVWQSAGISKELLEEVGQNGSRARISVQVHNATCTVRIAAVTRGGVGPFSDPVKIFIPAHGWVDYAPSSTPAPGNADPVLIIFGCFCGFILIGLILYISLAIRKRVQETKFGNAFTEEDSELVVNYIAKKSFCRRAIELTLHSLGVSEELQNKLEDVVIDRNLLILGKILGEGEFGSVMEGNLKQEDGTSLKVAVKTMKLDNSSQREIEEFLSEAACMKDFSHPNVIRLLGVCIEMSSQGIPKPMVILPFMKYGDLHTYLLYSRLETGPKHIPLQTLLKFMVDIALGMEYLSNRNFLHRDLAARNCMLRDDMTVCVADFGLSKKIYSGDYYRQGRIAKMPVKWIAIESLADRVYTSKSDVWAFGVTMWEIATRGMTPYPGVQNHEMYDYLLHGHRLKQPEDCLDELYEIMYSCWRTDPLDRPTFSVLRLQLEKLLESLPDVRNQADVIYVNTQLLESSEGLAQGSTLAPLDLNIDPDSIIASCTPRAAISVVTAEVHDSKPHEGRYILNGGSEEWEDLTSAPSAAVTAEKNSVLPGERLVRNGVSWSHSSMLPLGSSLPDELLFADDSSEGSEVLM
EPHB1, sequence (P54762 whole entry, looked up): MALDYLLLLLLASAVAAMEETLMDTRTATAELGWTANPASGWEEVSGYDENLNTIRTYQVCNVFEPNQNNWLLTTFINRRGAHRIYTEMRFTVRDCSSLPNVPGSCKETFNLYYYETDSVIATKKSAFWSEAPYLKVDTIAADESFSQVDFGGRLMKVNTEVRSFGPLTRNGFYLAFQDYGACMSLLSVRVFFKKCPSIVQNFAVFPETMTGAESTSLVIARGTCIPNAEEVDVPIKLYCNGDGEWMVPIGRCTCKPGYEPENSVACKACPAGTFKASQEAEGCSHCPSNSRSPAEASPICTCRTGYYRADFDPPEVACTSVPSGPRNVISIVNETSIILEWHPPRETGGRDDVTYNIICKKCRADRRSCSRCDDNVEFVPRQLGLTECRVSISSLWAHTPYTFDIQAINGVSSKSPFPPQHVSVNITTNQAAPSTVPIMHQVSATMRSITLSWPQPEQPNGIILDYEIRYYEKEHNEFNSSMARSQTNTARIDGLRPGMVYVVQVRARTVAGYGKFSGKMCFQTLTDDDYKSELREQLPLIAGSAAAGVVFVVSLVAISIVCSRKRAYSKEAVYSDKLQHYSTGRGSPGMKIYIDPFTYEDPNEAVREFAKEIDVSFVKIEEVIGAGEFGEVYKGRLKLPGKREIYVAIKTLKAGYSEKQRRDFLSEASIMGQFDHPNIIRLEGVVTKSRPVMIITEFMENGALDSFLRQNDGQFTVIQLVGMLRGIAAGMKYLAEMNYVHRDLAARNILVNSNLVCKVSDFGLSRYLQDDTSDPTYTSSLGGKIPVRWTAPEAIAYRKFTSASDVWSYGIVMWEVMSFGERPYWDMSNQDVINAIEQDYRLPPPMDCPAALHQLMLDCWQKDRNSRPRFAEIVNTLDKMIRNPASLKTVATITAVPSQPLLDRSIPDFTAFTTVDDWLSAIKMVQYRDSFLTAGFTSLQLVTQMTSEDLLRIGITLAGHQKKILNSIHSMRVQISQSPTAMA
FGFR3, sequence (P22607 whole entry, looked up): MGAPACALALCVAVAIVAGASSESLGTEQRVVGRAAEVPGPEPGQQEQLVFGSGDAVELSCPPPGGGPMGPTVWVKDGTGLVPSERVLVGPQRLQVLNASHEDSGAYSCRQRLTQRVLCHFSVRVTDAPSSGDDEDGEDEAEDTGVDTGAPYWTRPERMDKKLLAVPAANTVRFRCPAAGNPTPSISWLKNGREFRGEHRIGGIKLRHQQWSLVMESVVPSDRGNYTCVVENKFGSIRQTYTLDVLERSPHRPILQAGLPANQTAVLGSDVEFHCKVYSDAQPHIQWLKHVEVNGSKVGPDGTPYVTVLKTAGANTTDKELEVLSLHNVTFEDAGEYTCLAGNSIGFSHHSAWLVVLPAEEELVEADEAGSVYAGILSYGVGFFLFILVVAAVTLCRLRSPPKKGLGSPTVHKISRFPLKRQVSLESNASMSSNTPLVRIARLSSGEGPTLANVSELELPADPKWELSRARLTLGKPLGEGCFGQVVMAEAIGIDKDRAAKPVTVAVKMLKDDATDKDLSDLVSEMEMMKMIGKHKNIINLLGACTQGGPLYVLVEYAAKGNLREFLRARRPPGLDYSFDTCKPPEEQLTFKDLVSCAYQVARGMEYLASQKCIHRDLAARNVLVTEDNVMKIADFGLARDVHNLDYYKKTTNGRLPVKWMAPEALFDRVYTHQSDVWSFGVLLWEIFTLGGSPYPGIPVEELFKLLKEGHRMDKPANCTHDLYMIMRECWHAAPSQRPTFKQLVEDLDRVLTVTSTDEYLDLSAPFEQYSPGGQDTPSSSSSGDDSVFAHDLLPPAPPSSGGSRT
Jak2, sequence (O60674 whole entry, looked up): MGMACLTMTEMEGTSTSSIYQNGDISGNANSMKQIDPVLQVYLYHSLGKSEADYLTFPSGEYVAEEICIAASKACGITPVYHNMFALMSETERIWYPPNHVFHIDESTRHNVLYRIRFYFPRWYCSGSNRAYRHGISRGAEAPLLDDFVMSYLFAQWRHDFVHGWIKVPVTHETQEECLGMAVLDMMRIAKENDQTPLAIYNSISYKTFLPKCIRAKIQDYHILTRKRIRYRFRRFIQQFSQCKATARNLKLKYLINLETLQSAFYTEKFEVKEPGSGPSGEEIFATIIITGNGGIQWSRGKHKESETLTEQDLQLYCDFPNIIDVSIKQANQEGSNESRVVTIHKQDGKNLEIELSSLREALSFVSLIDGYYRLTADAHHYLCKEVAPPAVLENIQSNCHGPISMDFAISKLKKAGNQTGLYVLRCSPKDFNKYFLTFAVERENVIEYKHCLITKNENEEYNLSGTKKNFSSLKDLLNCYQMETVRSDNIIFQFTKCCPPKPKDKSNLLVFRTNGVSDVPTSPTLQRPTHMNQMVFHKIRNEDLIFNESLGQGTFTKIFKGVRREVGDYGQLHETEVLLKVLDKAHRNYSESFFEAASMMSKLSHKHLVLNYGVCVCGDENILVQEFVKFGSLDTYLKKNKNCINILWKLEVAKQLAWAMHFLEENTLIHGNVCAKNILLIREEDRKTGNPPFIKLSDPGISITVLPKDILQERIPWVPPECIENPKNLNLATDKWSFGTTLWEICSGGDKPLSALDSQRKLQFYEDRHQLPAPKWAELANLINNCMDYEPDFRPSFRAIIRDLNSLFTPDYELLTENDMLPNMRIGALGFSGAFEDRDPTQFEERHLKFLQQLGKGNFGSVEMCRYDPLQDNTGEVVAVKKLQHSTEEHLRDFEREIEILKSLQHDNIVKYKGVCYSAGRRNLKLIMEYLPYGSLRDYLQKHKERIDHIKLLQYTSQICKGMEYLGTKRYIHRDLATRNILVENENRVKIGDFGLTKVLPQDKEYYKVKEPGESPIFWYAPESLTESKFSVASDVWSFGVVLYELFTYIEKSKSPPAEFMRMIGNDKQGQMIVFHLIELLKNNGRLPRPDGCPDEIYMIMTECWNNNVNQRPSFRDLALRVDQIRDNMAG

SH2 binding enrichment [14] | SH2 binding enrichment [15] | SH2 binding enrichment [16] | Sequence | phosphorylation enrichment [1] | phosphorylation enrichment [2] | phosphorylation enrichment [3] | phosphorylation enrichment [4] | phosphorylation enrichment [5] | phosphorylation enrichment [6] | phosphorylation enrichment [7] | phosphorylation enrichment [8] | phosphorylation enrichment [9] | phosphorylation enrichment [10] | phosphorylation enrichment [11] | phosphorylation enrichment [12] | phosphorylation enrichment [13]
0.67 | 1.15 | 0.483 | GTATTYLCGVK [ALPL_Y117_A116T] | 0.914 | 0.5 | 0.8 | 0.595 | 0.758 | 0.495 | 1.13 | 0.479 | 0.582 | 0.946 | 0.493 | 0.811 | 0.472
1.23 | 0.769 | 0.656 | KLKEKYEKDIA [HMGB1_Y155] | 0.704 | 0.418 | 0.495 | 0.536 | 0.452 | 0.55 | 0.82 | 0.537 | 0.473 | 0.784 | 0.663 | 0.647 | 0.507
0.87 | 0.78 | 0.389 | GGTPLYRDRQG [AGXT_Y194_M195R] | 0.652 | 0.383 | 0.435 | 0.44 | 0.423 | 0.415 | 0.499 | 0.378 | 0.398 | 0.4 | 0.364 | 0.5 | 0.358
0.804 | 0.465 | 0.455 | FSCLPYGRLAY [SLC52A2_Y305] | 1.01 | 0.559 | 0.513 | 0.463 | 0.641 | 0.619 | 0.98 | 0.618 | 0.894 | 0.782 | 0.393 | 0.595 | 1.84
1.06 | 0.757 | 0.588 | VVQGIYGFHHH [UFSP2_Y285_Y290H_YF] | 0.685 | 0.65 | 1.19 | 0.523 | 0.496 | 11.7 | 0.776 | 11.7 | 10.8 | 0.538 | 9.65 | 2.36 | 9.09
0.7 | 0.464 | 0.531 | DLDTEYGSGYP [RNASEH2A_Y206_D205E] | 1.23 | 0.652 | 0.542 | 0.507 | 0.652 | 0.505 | 1.01 | 0.49 | 0.546 | 1.17 | 0.379 | 0.727 | 0.549
0.879 | 0.586 | 0.665 | PGQRVYVVAER [SHH_Y316] | 0.883 | 0.63 | 0.537 | 0.522 | 0.524 | 0.494 | 0.91 | 0.395 | 0.57 | 0.556 | 0.447 | 0.503 | 0.464
1.12 | 0.951 | 0.839 | YTFNSYYMHWV [IGHV1-46_Y51_T49N] | 1.77 | 4.7 | 4.46 | 6.62 | 5.38 | 5.35 | 1.6 | 1.54 | 2.52 | 6.39 | 6.9 | 1.1 | 2.06
0.831 | 1.01 | 0.513 | ELELLYPDRNS [NYX_Y284_L285P] | 1.17 | 0.556 | 0.544 | 0.776 | 0.759 | 0.463 | 1.27 | 0.492 | 0.534 | 1.03 | 0.433 | 0.799 | 0.489
1.28 | 0.456 | 0.388 | WIGRKYKKVRF [F8_Y442_R437W] | 0.567 | 0.547 | 0.518 | 0.506 | 0.54 | 0.492 | 0.611 | 0.552 | 0.546 | 0.571 | 0.527 | 0.676 | 0.619
1.55 | 1.05 | 1.02 | RHLLRYLSWTV [CLCNKB_Y93_S88R] | 0.883 | 0.712 | 0.591 | 0.532 | 0.521 | 0.594 | 1.29 | 0.507 | 0.614 | 0.982 | 0.379 | 0.969 | 0.516
0.816 | 0.845 | 0.476 | KAIMIYVSSFY [ACTN4_Y260_T259I] | 0.963 | 0.47 | 0.52 | 0.464 | 0.701 | 0.422 | 1.08 | 0.368 | 0.416 | 1.03 | 0.347 | 0.972 | 0.465
0.808 | 0.462 | 0.453 | DFDNLYYWDQD [ERBB2_Y1221_A1216D] | 2.68 | 4.08 | 3.3 | 9.53 | 9.13 | 3.8 | 1.96 | 6.81 | 5.31 | 1.86 | 7.57 | 0.973 | 6.09
0.62 | 0.596 | 0.46 | SVTCTYSRALN [TP53_Y126_P128R] | 1.09 | 0.626 | 0.602 | 0.461 | 0.796 | 0.5 | 1.28 | 0.429 | 0.523 | 1.07 | 0.401 | 0.916 | 0.494
0.804 | 0.532 | 1.26 | NYDLDYDSVQP [MYC_Y16] | 3.13 | 1.19 | 1.96 | 0.74 | 1.03 | 1.09 | 1.63 | 0.659 | 0.78 | 1.39 | 0.493 | 1.02 | 1.18
0.667 | 0.524 | 0.455 | GGYTWYCDGKK [PROS1_Y266_C265W] | 1.1 | 0.641 | 0.537 | 0.455 | 0.795 | 0.524 | 1.24 | 0.362 | 0.414 | 1.47 | 0.359 | 0.882 | 0.399

SH2 binding enrichment [14] | SH2 binding enrichment [15] | SH2 binding enrichment [16] | Sequence | phosphorylation enrichment [1] | phosphorylation enrichment [2] | phosphorylation enrichment [3] | phosphorylation enrichment [4] | phosphorylation enrichment [5] | phosphorylation enrichment [6] | phosphorylation enrichment [7] | phosphorylation enrichment [8] | phosphorylation enrichment [9] | phosphorylation enrichment [10] | phosphorylation enrichment [11] | phosphorylation enrichment [12] | phosphorylation enrichment [13]
1.02 | 0.959 | 1.37 | LTTEAYEWEPC [ELMOD3_Y61_R66C] | 5.1 | 3.5 | 2.44 | 2.04 | 3.7 | 2.88 | 6.22 | 1.58 | 1.88 | 6.69 | 1.57 | 4.16 | 5.66
1.54 | 1.2 | 1.72 | VNYGAYINNFK [GLB1_Y488_D491N] | 0.677 | 0.743 | 1.17 | 0.453 | 0.513 | 0.423 | 0.723 | 0.76 | 0.631 | 0.932 | 0.429 | 0.483 | 0.876
0.607 | 0.411 | 0.341 | ALAPKYHGGGG [HBB_Y146_H144P] | 0.314 | 0.315 | 0.356 | 0.327 | 0.248 | 0.332 | 0.506 | 0.31 | 0.348 | 0.423 | 0.386 | 0.423 | 0.389
0.692 | 0.573 | 7.93 | AGDGRYEVLFL [SEMA3F_Y478_A474G] | 0.94 | 0.658 | 0.667 | 0.533 | 0.786 | 4.36 | 1.02 | 0.455 | 0.772 | 0.927 | 1.08 | 0.758 | 0.545
0.768 | 0.586 | 0.693 | AESPEYVHMYT [FAM111A_Y511] | 1.34 | 0.486 | 0.491 | 1.92 | 1.26 | 0.467 | 1.01 | 0.423 | 0.469 | 0.962 | 0.413 | 0.825 | 0.531
0.752 | 0.549 | 0.573 | GDDLSYGDVPP [IRS1_Y151_E147D] | 1.11 | 0.543 | 0.588 | 0.479 | 0.576 | 0.61 | 1.24 | 0.426 | 0.535 | 1.04 | 0.413 | 0.751 | 0.63
1.09 | 0.664 | 0.573 | YHIDHYLGKEM [G6PD_Y202_R198H] | 0.599 | 0.437 | 0.505 | 0.673 | 0.667 | 0.478 | 0.674 | 0.482 | 0.474 | 0.476 | 0.438 | 0.58 | 0.546
1.11 | 0.379 | 0.503 | EVTRLYGSVCD [TC2N_Y154_K151T] | 1.18 | 0.708 | 0.586 | 0.557 | 0.783 | 0.982 | 1.29 | 3.63 | 2.02 | 1.27 | 0.727 | 0.895 | 2.77
0.891 | 0.555 | 0.419 | ELPEKYSQNIY [PKP2_Y626] | 0.905 | 0.459 | 0.526 | 0.52 | 0.763 | 0.475 | 0.921 | 0.762 | 0.905 | 0.891 | 0.384 | 0.658 | 0.575
0.697 | 0.643 | 0.509 | ALPGEYIPTVF [RAC1_Y32_F28L] | 1.1 | 0.585 | 0.595 | 0.573 | 0.697 | 0.46 | 1.16 | 0.612 | 0.492 | 1.12 | 0.426 | 0.7 | 0.514
0.792 | 0.595 | 0.503 | DRTGHYLCNAC [GATA1_Y223] | 0.691 | 0.389 | 0.676 | 0.349 | 0.449 | 0.408 | 0.769 | 0.389 | 0.489 | 0.885 | 0.499 | 0.575 | 0.469
1.32 | 1.49 | 1.43 | GRFCGYKSKHG [EPHA3_Y570] | 0.469 | 0.506 | 0.368 | 0.374 | 0.638 | 0.426 | 0.664 | 0.321 | 0.377 | 0.726 | 0.376 | 0.587 | 0.363
0.918 | 0.678 | 0.536 | RRIHSYRRHLW [VHL_Y112_G114R] | 0.735 | 0.725 | 0.82 | 0.868 | 0.718 | 0.529 | 0.699 | 0.65 | 0.746 | 0.633 | 0.707 | 0.699 | 0.584
0.712 | 0.672 | 0.477 | EAIMTYVSSFY [ACTN4_Y260_K255E] | 1.14 | 0.617 | 0.631 | 0.459 | 0.693 | 0.445 | 1.12 | 0.503 | 0.631 | 1.06 | 0.457 | 0.708 | 0.855
1.05 | 20.4 | 1.65 | NGSKAYAFVHF [PABPC5_Y147_G146A_YF] | 0.97 | 0.586 | 0.606 | 0.649 | 0.763 | 0.769 | 1.02 | 0.442 | 0.531 | 0.796 | 0.71 | 0.618 | 0.372

Sequence | SH2 binding enrichment [14] | SH2 binding enrichment [15] | SH2 binding enrichment [16] | phosphorylation enrichment [1] | phosphorylation enrichment [2] | phosphorylation enrichment [3] | phosphorylation enrichment [4] | phosphorylation enrichment [5] | phosphorylation enrichment [6] | phosphorylation enrichment [7] | phosphorylation enrichment [8] | phosphorylation enrichment [9] | phosphorylation enrichment [10] | phosphorylation enrichment [11] | phosphorylation enrichment [12] | phosphorylation enrichment [13]
MSRNLYSGDYY [DDR2_Y736] | 0.878 | 0.612 | 0.845 | 2.08 | 11.3 | 14.6 | 7.13 | 5.43 | 2.13 | 0.788 | 5.12 | 5.53 | 1.64 | 9.32 | 0.821 | 5.09
TTSQLYDAVPI [PDPK1_Y9] | 0.728 | 0.848 | 0.485 | 1.28 | 13.4 | 17.1 | 0.611 | 0.786 | 19.6 | 1.41 | 10.2 | 11.5 | 0.849 | 13 | 1.31 | 7.33
